Laboratory results taken from paper PMC9030869, “Interplay between Alba and Cren7 Regulates Chromatin Compaction in Sulfolobus solfataricus” (Biomolecules, 2022).

Molecular target: T1, Sulfolobus solfataricus Alba1 (S. solfataricus, UniProt P60849 1-97)
T1 construct: Alba1 of Sulfolobus solfataricus; construct obtained from Dr. Malcolm White (University of St. Andrews); It was obtained from Dr. Malcolm White; source: E. coli BL21(DE3), purified (HiTrap SPHP cation exchange, size exclusion chromatography)
T1 sequence (looked up): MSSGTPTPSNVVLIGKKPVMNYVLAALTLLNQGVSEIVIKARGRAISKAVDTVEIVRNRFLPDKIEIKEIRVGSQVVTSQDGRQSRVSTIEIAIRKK
Experiment: SEC; equimolar amounts (~100 µM) of Alba1 and Alba2 mixed, then run on a TSKgel G3000SWxl column with 150 mM NaCl in Buffer A as mobile phase
Settings: both partners purified

B1: Sulfolobus solfataricus Alba2 (natural protein, S. solfataricus, UniProt Q97ZF4 1-89, looked up)
chain: MTEKLNEIVVRKTKNVEDHVLDVIVLFNQGIDEVILKGTGREISKAVDVYNSLKDRLGDGVQLVNVQTGSEVRDRRRISYILLRLKRVY
notes: Alba2 of Sulfolobus solfataricus, homologue of Alba1; construct obtained from Dr. Malcolm White (University of St. Andrews); It was obtained from Dr. Malcolm White; source: E. coli BL21(DE3), purified (HiTrap SPHP cation exchange, size exclusion chromatography)
binding result: binds
